# Experimental data as given in publication PMC4423566 (Nature communications, 2015).
# Where two headings read alike, the source gives them in different places. Square brackets hold non-standard residues; d marks the D form. Peptide text beside a SMILES is read from it. * marks the point of attachment. X1 = CC(=O)N[C@@H]1[C@@H](O[C@@H]2O[C@H](CO)[C@H](O)[C@H](O)[C@H]2O)[C@@H](O)[C@@H](CO[C@@H]2O[C@H](CO)[C@@H](O[C@@H]3O[C@H](CO)[C@H](O)[C@H](O[C@]4(C(=O)O)C[C@H](O)[C@@H](NC(C)=O)[C@H]([C@H](O)[C@H](O)CO)O4)[C@H]3O)[C@H](O[C@@H]3O[C@@H](C)[C@@H](O)[C@@H](O)[C@@H]3O)[C@H]2NC(C)=O)O[C@@H]1*; sY = N[C@@H](Cc1ccc(OS(=O)(=O)O)cc1)C(=O)O; Mca = COc1ccc2c(CC(=O)*)cc(=O)oc2c1
# Columns and labels:
# E-selectin = conditions: cited from earlier work
# P-selectin [1] = conditions: read-out: IC50 against P-selectin; cited from earlier work
# L-selectin = conditions: cited from earlier work
# [2] = target: recombinant human P-selectin Fc chimera (human) (UniProt P16109); test: flow cytometry on cells
# [3] = target: recombinant mouse P-selectin Fc chimera (mouse) (UniProt Q01102); test: flow cytometry on cells
# [4] = target: recombinant mouse P-selectin Fc chimera (mouse) (UniProt Q01102); test: flow cytometry on cells; remark: listed apart in the source
# [5] = target: recombinant human P-selectin Fc chimera (human) (UniProt P16109); test: flow cytometry on cells; remark: listed apart in the source
# [6] = target: recombinant mouse L-selectin Fc chimera (mouse) (UniProt P18337); test: flow cytometry on cells
# human P-selectin = human P-selectin (Homo sapiens, UniProt P16109); conditions: cited from earlier work
# [7] = Temperature- and pH-dependent stability by RP-HPLC; assay type: physicochemical; conditions: pH 5, T = 37°C
# P-selectin [8] = test: Microarray binding of glycopeptide mimics to selectin-Ig chimeras; design: species or system human and mouse; conditions: selectin-Ig chimeras 5-20 μg/mL, Alexa-488 anti-human IgG
# GSnP-6 = test: SPR
# recombinant mouse L-selectin Fc chimera (mouse), sequence (P18337 39-332, change not shown): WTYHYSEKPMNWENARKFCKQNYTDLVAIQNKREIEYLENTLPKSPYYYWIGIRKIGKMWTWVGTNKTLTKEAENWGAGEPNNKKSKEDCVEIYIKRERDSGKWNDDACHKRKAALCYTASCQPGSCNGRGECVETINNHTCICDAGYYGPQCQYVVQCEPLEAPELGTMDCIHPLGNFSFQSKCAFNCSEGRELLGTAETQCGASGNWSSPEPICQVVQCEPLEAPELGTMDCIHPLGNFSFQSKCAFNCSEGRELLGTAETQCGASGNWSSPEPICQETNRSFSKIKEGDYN
molecule,measurement,setting,value
"O=C(O)Cc1cccc(-c2cc(CCCCCCc3ccc(O[C@H]4O[C@H](CO)[C@@H](O)[C@H](O)[C@@H]4O)c(-c4cccc(CC(=O)O)c4)c3)ccc2O[C@H]2O[C@H](CO)[C@@H](O)[C@H](O)[C@@H]2O)c1 [bimosiamose, reference compound]",IC50,E-selectin; read-out: IC50 against E-selectin,[…]
same,IC50,P-selectin [1],70 µM
GSnP-6 (peptide),IC50,[2],20 µM
same,IC50,[3],28 µM
same,IC50,[4],19 µM
same,IC50,[5],14 µM
same,IC50,[6],30 µM
PSGL-1 (from UniProt Q14242),Kd,human P-selectin,0.073 µM
COc1ccc2c(CC(=O)NCCCC[C@H](N)C(=O)N[C@@H](CCC(=O)O)C(=O)N[C@@H](Cc3ccc(OS(=O)(=O)O)cc3)C(=O)N[C@@H](CCC(=O)O)C(=O)N[C@@H](Cc3ccc(OS(=O)(=O)O)cc3)C(=O)N[C@@H](CC(C)C)C(=O)N[C@@H](CC(=O)O)C(=O)N[C@@H](Cc3ccc(OS(=O)(=O)O)cc3)C(=O)N[C@@H](CC(=O)O)C(=O)N[C@@H](Cc3ccccc3)C(=O)N[C@@H](CC(C)C)C(=O)N3CCC[C@H]3C(=O)N[C@@H](CCC(=O)O)C(=O)N[C@H](C(=O)N[C@@H](CCC(=O)O)C(=O)N3CCC[C@H]3C(=O)N[C@@H](CC(C)C)C(=O)O)[C@@H](C)O[C@H]3O[C@H](CO[C@@H]4O[C@H](CO)[C@@H](O[C@@H]5O[C@H](CO)[C@H](O)[C@H](O[C@]6(C(=O)O)C[C@H](O)[C@@H](NC(C)=O)[C@H]([C@H](O)[C@H](O)CO)O6)[C@H]5O)[C@H](O[C@@H]5O[C@@H](C)[C@@H](O)[C@@H](O)[C@@H]5O)[C@H]4NC(C)=O)[C@H](O)[C@H](O[C@@H]4O[C@H](CO)[C@H](O)[C@H](O)[C@H]4O)[C@H]3NC(C)=O)cc(=O)oc2c1 [GSP-6] (H-K(Mca)E[sY]E[sY]LD[sY]DFLPET(X1)EPL-OH),stability at low pH,[7],rapidly degraded
same,microarray binding to P-selectin (in words),P-selectin [8],bound to P-selectin more strongly than to E- or L-selectin
recombinant human P-selectin Fc chimera (from UniProt P16109 42-771) (Fc fusion),Kd,GSnP-6,0.022 µM
"P-selectin-glycoprotein-ligand-1 (protein, UniProt Q14242 42-412, looked up) P-selectin glycoprotein …: QATEYEYLDYDFLPETEPPEMLRNSTDTTPLTGPGTPESTTVEPAARRSTGLDAGGAVTELTTELANMGNLSTDSAAMEIQTTQPAATEAQTTQPVPTEAQTTPLAATEAQTTRLTATEAQTTPLAATEAQTTPPAATEAQTTQPTGLEAQTTAPAAMEAQTTAPAAMEAQTTPPAAMEAQTTQTTAMEAQTTAPEATEAQTTQPTATEAQTTPLAAMEALSTEPSATEALSMEPTTKRGLFIPFSVSSVTHKGIPMAASNLSVNYPVGAPDHISVKQCLLAILILALVATIFFVCTVVLAVRLSRKGHMYPVRNYSPTEMVCISSLLPDGGEGPSATANGGLSKAKSPGLTPEPREDREGDDLTLHSFLP",Kd,E-selectin; read-out: Kd of PSGL-1 binding to E-selectin,2 to 5 µM
same,Kd,L-selectin; read-out: Kd of PSGL-1 binding to L-selectin,2 to 5 µM
recombinant mouse P-selectin Fc chimera (Fc fusion) WTYNYSTKAYSWNNSRVFCRRHFTDLVAIQNKNEIAHLNDVIPFFNSYYWIGIRKINNKWTWVGTNKTLTEEAENWADNEPNNKKNNQDCVEIYIKSNSAPGKWNDEPCFKRKRALCYTASCQDMSCSNQGECIETIGSYTCSCYPGFYGPECEYVKECGKVNIPQHVLMNCSHPLGEFSFNSQCTFSCAEGYELDGPGELQCLASGIWTNNPPKCDAVQCQSLEAPPHGTMACMHPIAAFAYDSSCKFECQPGYRARGSNTLHCTGSGQWSEPLPTCEAIACEPPEIPIHGSMDCVPSTGTFGYNSSCTFLCAEGFVLKGNDAIQCADSGQWTAPAPFCEALQCPEFPVPSKAQVNCSDPFGTLTYQSVCSFSCDEGSLLVGASVIRCLATGHWNGAPPECQAVSCAPMLSPENGSMTCVQPLGNSTYKSTCQFMCDEGFYLSGPERLDCSPSGHWTGTPPTCEAIKCPGIFAPEQGNLDCSHVHGEFGVGSICHFSCNEDFELLGSENVECTVSGRWSAPPPTCKGITSLPAPAVRCPALTTPGQGTMSCQHHLGSFGPNTTCYFGCKTGFTLRGANSLRCRASGQWTAVTPMCRAVKCSELHMDTAVAMNCSNPWGNFSYGSTCTFQCPEGQSLNGSVRATCREDGHWSDAMPTCQAGTLTIQEA,fold change of Kd against human P-selectin,GSnP-6,9 fold
"E-sel-Ig (Biacore assay, species not stated) (Fc fusion) WSYNTSTEAMTYDEASAYCQQRYTHLVAIQNKEEIEYLNSILSYSPSYYWIGIRKVNNVWVWVGTQKPLTEEAKNWAPGEPNNRQKDEDCVEIYIKREKDVGMWNDERCSKKKLALCYTAACTNTSCSGHGECVETINNYTCKCDPGFSGLKCEQIVNCTALESPEHGSLVCSHPLGNFSYNSSCSISCDRGYLPSSMETMQCMSSGEWSAPIPACNVVECDAVTNPANGFVECFQNPGSFPWNTTCTFDCEEGFELMGAQSLQCTSSGNWDNEKPTCKAVTCRAVRQPQNGSVRCSHSPAGEFTFKSSCNFTCEEGFMLQGPAQVECTTQGQWTQQIPVCEAFQCTALSNPERGYMNCLPSASGSFRYGSSCEFSCEQGFVLKGSKRLQCGPTGEWDNEKPTCEAVRCDAVHQPPKGLVRCAHSPIGEFTYKSSCAFSCEEGFELHGSTQLECTSQGQWTEEVPSCQVVKCSSLAVPGKINMSCSGEPVFGTVCKFACPEGWTLNGSAARTCGATGHWSGLLPTCEAPTESNIP",fold lower affinity than P-Sel-Ig,GSnP-6,25 fold
"L-sel-Ig (Biacore assay, species not stated) (Fc fusion) WTYHYSEKPMNWQRARRFCRDNYTDLVAIQNKAEIEYLEKTLPFSRSYYWIGIRKIGGIWTWVGTNKSLTEEAENWGDGEPNNKKNKEDCVEIYIKRNKDAGKWNDDACHKLKAALCYTASCQPWSCSGHGECVEIINNYTCNCDVGYYGPQCQFVIQCEPLEAPELGTMDCTHPLGNFSFSSQCAFSCSEGTNLTGIEETTCGPFGNWSSPEPTCQVIQCEPLSAPDLGIMNCSHPLASFSFTSACTFICSEGTELIGKKKTICESSGIWSNPSPICQKLDKSFSMIKEGDYN",fold lower affinity than P-Sel-Ig,GSnP-6,25 fold
